{"source": "paper PMC10668032", "about": "“Altered binding affinity of SIX1-Q177R correlates with enhanced WNT5A and WNT pathway effector expression in Wilms tumor”", "binders": {"B1": {"name": "WNT5A_promoter_EMSA (dsDNA)", "DNA 1": "CCCGCCCTAAGTGTCAAATTTCCTCCAGGGGAG", "DNA 2": "CTCCCCTGGAGGAAATTTGACACTTAGGGCGGG"}}, "target": "T1, SIX1-Q177R (human, UniProt Q15475 1-284, Q177R)", "T1 sequence": "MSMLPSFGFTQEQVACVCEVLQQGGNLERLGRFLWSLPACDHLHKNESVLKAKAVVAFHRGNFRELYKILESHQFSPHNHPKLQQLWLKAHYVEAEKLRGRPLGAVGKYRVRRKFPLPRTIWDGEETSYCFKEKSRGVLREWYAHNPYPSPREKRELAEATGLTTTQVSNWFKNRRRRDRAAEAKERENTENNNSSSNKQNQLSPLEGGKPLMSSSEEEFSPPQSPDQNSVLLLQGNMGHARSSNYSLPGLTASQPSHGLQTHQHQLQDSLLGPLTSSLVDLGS", "test": "EMSA; EMSA: Active Motif Gelshift or Thermo LightShift chemiluminescent kit binding buffer, no glycerol, no poly d(I-C), RT 25 min; protein dilutions 1-300 nM; 6% gel in 0.5x TBE; pH and salt not given", "conditions": "protein: recombinant; tags: N-terminal HA from pGEX-6p1-N-HA (GST removed with PreScission); label: biotin 3' end (both strands, Pierce 3' end-labeling kit); blunt", "data": [{"binder": "B1", "values": [{"measurement": "binding signal", "value": "~10 fold higher affinity than SIX1 on same probe"}]}]}
